The text below walks through data of patent US20230021840A1, “USE OF GP73 INHIBITOR IN PREPARATION OF MEDICINE FOR TREATING DIABETES” (BEIJING SUNGEN BIOMEDICAL TECHNOLOGY CO. LTD., priority 2020, published 2023).

Series [1] relates to mice with type II diabetes. Kind of series: GP73 siRNA treatment of high-fat-diet-induced mice with type II diabetes. The series is classed as in vivo, C57BL/6N mice. The note with it: for HbA1c: serum. How it is done:
2. In the present invention, the detection method of glucose in mice is as follows: all blood samples were collected from the tail, and the blood glucose was tested by a full-automatic glucometer (ACCU-CHEK; Roche) through a glucose oxidase method; normal mice and diabetic mice were fasting for 6 h, and fasting blood glucose was tested; the random blood glucose level was tested at 9:00 am; and when the blood glucose level is greater than 35 mM (the upper limit of glucometer), it was recorded as 35 mM.
3. In the present invention, the detection method of the glycometabolism experiment is as follows: In the glucose, insulin and pyruvate tolerance tests, mice were fasting for 12 h and then injected with D-glucose (Sigma, Art. No.: G8270, 1.5 g/kg body weight), insulin (Sigma, Art. No.: 19278, 0.75 U/kg body weight) or sodium pyruvate (Sigma, Art. No.: P2256, 2 g/kg body weight) at […]; at 0 min, 15 min, 30 min, 45 min, 60 min, 120 min and 24 h after injection, blood was collected from the tail vein of mice, and blood glucose was tested to determine the intraperitoneal glucose tolerance (IPGTT), pyruvate tolerance (PTT) and insulin tolerance (ITT).
Experimental method: On this basis, C57BL/6N mice (male, 8-10 weeks old, 20-22 g) were selected, and after feeding high-fat diet for 20 weeks, the animals were fasting for 6 h, and the fasting blood glucose was tested. […] According to the fasting blood glucose, the mice were randomly divided into the Ctr siRNA group and the GP73 siRNA experimental group, 6 mice per group. The mice were first injected with 4 nM at the tail vein, and then intraperitoneally injected with 4 nM, once every 5 days. The mice were sacrificed 4 weeks after the first injection, and the indicators such as blood glucose and glycated hemoglobin were detected.

Series [2] deals with endogenous GP73. As to the kind of experiment: Knockdown of endogenous GP73 in H22 cells (western blotting). Particulars: H22 mouse liver cells; 24 h after transfection. The format is cell-based. How it is done: Experimental method: A total of 9 RNAi oligos (Table 7, SEQ ID NOs. 1-9) targeting different sites of mouse GP73 were firstly synthesized, and H22 mouse liver cells were transfected and collected for the western blotting experiments 24 h after transfection.
Background: In western blotting, separated proteins are transferred to a membrane and probed.

Series [3] deals with glucagon (UniProt P01275). As to the kind of experiment: SPR, Reichert 4SPR. In general terms: SPR reads the build-up and loss of mass on a sensor chip optically.
Sequence of glucagon (P01275 53-81 limits assumed): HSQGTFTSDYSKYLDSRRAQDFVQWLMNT
For series [4], the target named is glucagon (UniProt P01275). Kind of series: microscale thermophoresis (MST), His-tagged GP73 labelled with RED-tris-NTA, GCG titrated. (In general: Microscale thermophoresis detects binding through changes in fluorescence in a small temperature gradient.)
In series [5] the target is glucagon (UniProt P01275). As to the kind of experiment: OpenSPR, GP73 coupled to amine sensor chip, glucagon in mobile phase.
The test system of series [6] is PKA. As to the kind of experiment: PKA phosphorylation and kinase activity in HepG2 cells (western blotting). The series is classed as cell-based. Particulars: versus PBS control.
In series [7] the target is T1, GCG (Homo sapiens, UniProt P01275).
T1 construct: purchased MCE HY-P0082
Kind of series: Affinity of recombinant soluble GP73 and GCG by Reichert 4SPR. The format is binding.

Series [8] addresses T1, GCG. Kind of series: Affinity of recombinant soluble GP73 and GCG by microscale thermophoresis (MST). The series is classed as binding.
Series [9] addresses T1, GCG. As to the kind of experiment: Affinity of recombinant soluble GP73 and GCG by OpenSPR. The series is classed as binding.

Entries after “also recorded” stand apart in the source; their conditions may differ.

In [1] (4 weeks after treatment), “Ctr siRNA: RNAi oligos with disrupted sequences used as control, AUCACACCAACACAGGUCCTT (chemistry not given here)” came in with an ALT of 77 ± 22, an AST of 243 ± 65, a CHO of 5.62 ± 0.97 and a TG of 1.27 ± 0.37. The same molecule registered a HbA1c in series [1] (4 weeks after treatment) of 4.39±0.67%. In addition, the HbA1c in series [1] (4 weeks after treatment, listed as Ctrl siRNA) stood at 4.39 ± 0.67%. In series [1] (Week 0), this molecule came in with a Fasting blood glucose of 12.0 ± 1.7 mM. The Fasting blood glucose in [1] (Week 4, injection once every 5 days) is given as 12.2 ± 3.0 mM.

Take “No. 4: GP73 siRNA 995-CCAACAGGCAUCCAUCCAATT (unmodified) (2'-OMe throughout, phosphorothioates at both ends, 3'-cholesterol, counts not given here)”: the “Knockdown efficiency of endogenous GP73” value in series [2] is “good knockdown efficiency”.

The Kd is the concentration at which binding is half-saturated. As for recombinant monkey soluble GP73, the Kd in series [3] turned out to be 350 nM; in series [4], 120 nM.

As to recombinant mouse soluble GP73, the Kd was found to be 1550 nM in series [3], 410 nM in [4] and 3210 nM in series [5].

As for recombinant rat soluble GP73, the Kd was found to be 730 nM in series [3], 580 nM in series [4] and 3190 nM in series [5].

B1: rhsGP73: recombinant human soluble GP73, NCBI Reference Sequence NP_057632.2 (protein)
chain: AAAERGAVELKKNEFQGELEKQREQLDKIQSSHNFQLESVNKLYQDEKAVLVNNITTGERLIRVLQDQLKTLQRNYGRLQQDVLQFQKNQTNLERKFSYDLSQCINQMKEVKEQCEERIEEVTKKGNEAVASRDLSENNDQRQQLQALSEPQPRLQAAGLPHTEVPQGKGNVLGNSKSQTPAPSSEVVLDSKRQVEKEETNEIQVVNEEPQRDRLPQEPGREQVVEDRPVGGRGFGGAGELGQTPQVQAALSVSQENPEMEGPERDQLVIPDGQEEEQEAAGEGRNQQKLRGEDDYNMDENEAESETDKQAALAGNDRNIDVFNVEDQKRDTINLLDQREKRNHTL
Regarding B1, in series [6], the “PKA phosphorylation level (PKA-p) and kinase activity (RRXρS/T)” value is “significantly up-regulated; also recorded: promotes the phosphorylation level (PKA-p) and kinase activity”. Also, the Kd worked out at 2830 nM in [7], 2450 nM in series [8] and 2800 nM in series [9].
